Test results published in publication PMC4398557, “Conserved Streptococcus pneumoniae Spirosomes Suggest a Single Type of Transformation Pilus in Competence” (PLoS Pathogens, 2015).

Key:
[1] = molecular target: the molecule itself; assay: SEC + other: negative-stain electron microscopy
[2] = molecular target: the molecule itself; assay: negative-stain electron microscopy; Talon eluate (TBS, 140 mM imidazole) of recombinant His-tagged protein applied at once to carbon grids, 2% uranyl acetate

B1: bifunctional acetaldehyde-alcohol dehydrogenase AdhE (Streptococcus pneumoniae), native spirosomes (enzyme)
chain: MKAMEENMADKKTVTPEEKKLVAEKHVDELVQKALVALEEMRKLNQEQVDYIVAKASVAALDAHGELALHAFEETGRGVFEDKATKNLFACEHVVNNMRHTKTVGVIEEDDVTGLTLIAEPVGVVCGITPTTNPTSTAIFKSLISLKTRNPIVFAFHPSAQESSAHAARIVRDAAIAAGAPENCVQWITQPSMEATSALMNHEGVATILATGGNAMVKAAYSCGKPALGVGAGNVPAYVEKSANIRQAAHDIVMSKSFDNGMVCASEQAVIIDKEIYDEFVAEFKSYHTYFVNKKEKALLEEFCFGVKANSKNCAGAKLNADIVGKPATWIAEQAGFTVPEGTNILAAECKEVGENEPLTREKLSPVIAVLKSESREDGITKARQMVEFNGLGHSAAIHTADEELTKEFGKAVKAIRVICNSPSTFGGIGDVYNAFLPSLTLGCGSYGRNSVGDNVSAINLLNIKKVGRRRNNMQWMKLPSKTYFERDSIQYLQKCRDVERVMIVTDHAMVELGFLDRIIEQLDLRRNKVVYQIFADVEPDPDITTVNRGTEIMRAFKPDTIIALGGGSPMDAAKVMWLFYEQPEVDFRDLVQKFMDIRKRAFKFPLLGKKTKFIAIPTTSGTGSEVTPFAVISDKANNRKYPIADYSLTPTVAIVDPALVLTVPGFVAADTGMDVLTHATEAYVSQMASDYTDGLALQAIKLVFENLESSVKNADFHSREKMHNASTIAGMAFANAFLGISHSMAHKIGAQFHTIHGRTNAILLPYVIRYNGTRPAKTATWPKYNYYRADEKYQDIARMLGLPASTPEEGVESYAKAVYELGERIGIQMNFRDQGIDEKEWKEHSRELAFLAYEDQCSPANPRLPMVDHMQEIIEDAYYGYKERPGRRK
notes: also called spirosin; 'plaited' filaments
B1: binds [1].

B2: AdhE^S.pneumoniae, C-terminally hexahistidine-tagged, expressed in E. coli (enzyme)
chain: B1 chain
notes: not shown: His6, C-terminal, kept
B2: binds [2].
